# B1: HRF: flagellin polypeptide from Massilia timonae (SEQ ID NO:10), used as bacterial culture supernatant (protein)
# chain: MASVINTNVPSLNSQRNLSTSQAQLNTSIQRLSSGMRINSAKDDAAGLAISDRMNSQIKGMTQATRNANDGVSMAQTAEGALSSSGDILQRIRELAVQSSNSSNSASDRKALQTEVTQLSSELNRIANTTEFNGQKLMDGTLGTANFQVGANAGQLISMTGANFNTSVYGNNQIAGDAAKAAATTSAAATGAFTISGYLGTSAAINTTDADTAKTIAASINNVTGDTGVTATARTDSFLKSAGGAHTMSLASDNSGTGEAVDISFTVGDGGDTADDYAAAISAFNAQTAKTGVTAEYDAVEKGLKLTNSAGENISLTNKAGSADIDMDTYAADGALMASALTLEAGDVGVANGRVTMDSEKSFSVAEGTDTGFELADSSALKSVAKIDISDFEGAQEAIKVADAALSAVNSQRAEYGALQSRFESAISNLSSSTENLSASRSRIVDTDFAAETAKMTRGQILQQAGTSMLAQANSLPNGVLSLLRG
# Key:
# Format in all cases: cell-based
# [1] = test system: NF-κB dependent promoters in 293T cells; experiment: NF-κB dependent promoter constructs transfected into 293T cells (EGFP expression)
# Procedure: FIGS. 6A-6C show HRF triggers suboptimal functional induction of NF-κB dependent gene expression. […] The HIV-1 reactivating kinetics were determined by stimulating CA5 T cells with optimal concentrations of HRF, phorbol 12-myristate 13-acetate (PMA) and tumor necrosis factor-α (TNF-α) and analyzing HIV-1 reactivation as a function of EGFP-expression over a period of 48 hours. Data for all agents are depicted as the percentage of EGFP-positive cells in the total cell population. […] To test the ability of HRF to mediate Tat-independent activation of the HIV-1 LTR, NOMI cells (HIV-1 reporter cell line with an integrated LTR-EGFP construct) were stimulated with increasing concentrations of PMA (0.01-10 ng/ml), TNF-α (0.003-30 μg/ml) and HRF supernatant (0.3-100 μl). The level of LTR-induction was then measured as EGFP-expression detectable after 24 hours as determined by flow cytometric analysis. Arrows indicate the concentrations at which the respective stimulus would have triggered full HIV-1 reactivation in the latently HIV-1 infected CA5 T cell line. […] 293T cells were transfected with several NF-κB dependent promoter constructs and then stimulated with either TNF-α (10 μg/ml) or HRF (25 μl). Promoter induction was measured as total EGFP expression. (NF-κB:pNF-κB-d2EGFP; LTR:HIV-1 LTR-GFP; IL-8:pIL-8 GFP; TNF:human TNF-GFP; MSCV:murine stem cell virus LTR driven GFP; no NF-κB responsive elements).
# The utilized EGFP reporter virus HIV-1 NLENG1-IRES has been described elsewhere (Kutsch et al., J. Virol. 76:8776-86 (2002); Levy et al., Proc. Natl. Acad. Sci. USA 101:4204-9 (2004)). The reporter plasmid pNF-κB-d2EGFP was purchased from Clontech (Mountain View, Calif.). The LTR-GFP construct and the IL-8 reporter construct have been described earlier (Choi et al., Mol. Cell. Biol. 22:724-36 (2002)). The TNF-promoter construct was generated by cloning the human TNF-α promoter element defined by primer pair 5′-BglII; 5′-[…] […]-3′ (SEQ ID NO:2) and 3′-AgeI; 5′-[…] […]-3′ (SEQ ID NO:3) into pd2EGFP (Clontech). MSCV-GFP was generated by cloning the EGFP-gene into retroviral pMSCV-puro vector (Clontech).
# [2] = test system: NF-κB; experiment: NF-κB activity measured by GFP production in Jurkat T cells; settings: compared with Salmonella typhimurium flagellin
# [3] = test system: cell culture; experiment: Cytotoxicity in cell culture and therapeutic index
# From the text: The HRFs provided herein show little to no cytotoxicity and have a therapeutic index greater than 300. A therapeutic index is a comparison of the amount of a therapeutic agent that causes a therapeutic effect to the amount that causes death. The therapeutic index is a ratio given by the lethal dose of a drug or agent for 50% of the population (LD50) divided by the minimum effective therapeutic dose for 50% of the population (ED50). A high therapeutic index is preferable.
# [4] = test system: HIV-1 replication in PBMCs; experiment: HIV-1 replication in PBMCs infected with GFP reporter virus; settings: saturating HRF levels, 5 days post infection
# Procedure: FIGS. 8A-8C show HRF induced NF-κB and cytokine expression in peripheral blood mononuclear cells (PBMCs). […] PBMCs were activated with optimal concentrations of either PHA-L or with HRF. Cells were harvested at the indicated time points. Nuclear extracts were generated and NF-κB p50 activity and NF-κB p65 activity were determined using the TransAM™ NF-κB family ELISA kit (Active Motif). […] PBMCs from four different healthy donors were stimulated with an anti-CD3/CD28 antibody combination and infected with a GFP reporter virus on day 4 post-stimulation. HIV-1 replication was monitored in the absence (C) or presence of HRF for 5 days and the achieved HIV-1 infection levels were determined by flow cytometric analysis for the percentage of EGFP-positive cells. All infections were normalized to the infection level in the untreated culture and the histogram represents the mean infection levels obtained in 4 donor cultures±standard deviation. […] PBMCs from four healthy donors were left unstimulated (C) or stimulated with an anti-CD3/CD28 antibody combination as a positive control or were stimulated with a concentration of HRF that would trigger maximum HIV-1 reactivation in CA5 T cells. Culture supernatants were collected after 24 hours and the concentrations of a panel of cytokines was determined by BioPlex analysis. […]
# [5] = test system: Jurkat T cells; experiment: Protection of Jurkat T cells from poly (I:C) induced apoptosis (viability); settings: compared with Salmonella typhimurium flagellin
# Procedure: High concentrations of poly (I:C) trigger apoptosis in Jurkat cells and reduce cell viability. Viability of control cells (C) was compared to the viability of cell cultures treated with poly (I:C) (10 μg/ml) and increasing amounts of either flagellin or HRF.
molecule,measurement,setting,value
B1,"GFP expression driven by NF-κB responsive promoter constructs (IL-8, TNF-α, HIV-1 LTR, three consensus NF-κB sites)",[1],weak GFP expression
same,GFP expression of construct under control of murine stem cell virus LTR (no NF-κB responsive element),[1],Neither TNF-α nor HRF influenced GFP expression
same,NF-κB activity and NF-κB driven gene expression,[2],lower levels of NF-κB activity and NF-κB driven gene expression than flagellin from Salmonella typhimurium
same,cytotoxicity in cell culture,[3],far less cytotoxic
same,therapeutic index,[3]; LD50/ED50,> 300
same,HIV-1 replication,[4],not significantly increased
same,protection from induced apoptosis,[5],greater efficacy
